Source: PMC5680255

Tests used:
[1] = target: Photosystem II subunit S (PsbS) of Physcomitrella patens, recombinant, detergent-refolded (Physcomitrella patens); assay: SDS-PAGE without boiling; PsbS refolded in FC-12, pH 7.5; samples taken day 0 to day 90 after refolding; not boiled before loading
[2] = target: Photosystem II subunit S (PsbS) of Physcomitrella patens, recombinant, detergent-refolded (Physcomitrella patens); assay: SEC; Superdex 200 5/150 GL; 100 mM sodium phosphate pH 7.5 with 1% OG; detection at 260 nm
[3] = target: Photosystem II subunit S (PsbS) of Physcomitrella patens, recombinant, detergent-refolded (Physcomitrella patens); assay: DOSY NMR; PsbS in FC-12, pH 5.0; 1H HN intensities, double-exponential fit
[4] = target: Photosystem II subunit S (PsbS) of Physcomitrella patens, recombinant, detergent-refolded (Physcomitrella patens); assay: DOSY NMR; PsbS in FC-12, pH 7.5; 1H HN intensities, double-exponential fit
[5] = target: Photosystem II subunit S (PsbS) of Physcomitrella patens, recombinant, detergent-refolded (Physcomitrella patens); assay: SEC; Superdex 200 5/150 GL; 100 mM sodium phosphate pH 7.5 with 0.05% FC12; detection at 260 nm
[6] = target: Photosystem II subunit S (PsbS) of Physcomitrella patens, recombinant, detergent-refolded (Physcomitrella patens); assay: SDS-PAGE without boiling; PsbS refolded in FC-12, pH 5.0; samples taken day 0 to day 90 after refolding; not boiled before loading

Measured: stoichiometry N

Photosystem II subunit S (PsbS) of Physcomitrella patens, recombinant, detergent-refolded (natural protein)
2: all assays above
